Non-standard residues stand in square brackets, D forms with d. No end group written: not given here. Phe(4-NH2) = Nc1ccc(C[C@H](N)C(=O)O)cc1; 1Nal = N[C@@H](Cc1cccc2ccccc12)C(=O)O; Arg(Me) = CNC(=N)NCCC[C@H](N)C(=O)O; Ala(cPr) = N[C@@H](CC1CC1)C(=O)O; 4Pal = N[C@@H](Cc1ccncc1)C(=O)O; Cha = N[C@@H](CC1CCCCC1)C(=O)O; Phg = N[C@H](C(=O)O)c1ccccc1; 4Amb = NCc1ccc(C(=O)O)cc1; Nle = CCCC[C@H](N)C(=O)O; Aib = CC(C)(N)C(=O)O
T1: human Y2 receptor (human, UniProt P49146 1-381)
T1 construct: whole, on cells; used as membrane fraction of hY2R/CHO cells; also called human NPY2R; hY2R
T1 sequence (looked up): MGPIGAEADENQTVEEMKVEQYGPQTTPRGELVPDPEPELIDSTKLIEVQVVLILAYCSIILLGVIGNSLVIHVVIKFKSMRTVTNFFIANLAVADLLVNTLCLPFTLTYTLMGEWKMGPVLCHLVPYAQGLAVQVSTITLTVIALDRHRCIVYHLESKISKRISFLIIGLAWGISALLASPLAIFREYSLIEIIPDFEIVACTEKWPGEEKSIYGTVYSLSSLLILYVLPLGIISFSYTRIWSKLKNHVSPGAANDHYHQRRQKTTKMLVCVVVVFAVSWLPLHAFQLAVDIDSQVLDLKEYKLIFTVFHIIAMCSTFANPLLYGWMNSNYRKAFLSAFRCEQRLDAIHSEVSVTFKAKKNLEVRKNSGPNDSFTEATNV

B1: 4-Aminomethylbenzoyl-[Ala26, Ile28, Phg31]-PYY(25-36) (peptide)
peptide: [4Amb]RAYINL[Phg]TRQRY-NH2
modifications: N-terminus assumed
SMILES: CC[C@H](C)[C@H](NC(=O)[C@H](Cc1ccc(O)cc1)NC(=O)[C@H](C)NC(=O)[C@H](CCCNC(=N)N)NC(=O)c1ccc(CN)cc1)C(=O)N[C@@H](CC(N)=O)C(=O)N[C@@H](CC(C)C)C(=O)N[C@H](C(=O)N[C@H](C(=O)N[C@@H](CCCNC(=N)N)C(=O)N[C@@H](CCC(N)=O)C(=O)N[C@@H](CCCNC(=N)N)C(=O)N[C@@H](Cc1ccc(O)cc1)C(N)=O)[C@@H](C)O)c1ccccc1
notes: also called compound No. 40
B2: 4-Aminomethylbenzoyl-[Ala26, Ile28, Nle31]-PYY(25-36) (peptide)
peptide: [4Amb]RAYINL[Nle]TRQRY-NH2
modifications: N-terminus assumed
SMILES: CCCC[C@H](NC(=O)[C@H](CC(C)C)NC(=O)[C@H](CC(N)=O)NC(=O)[C@@H](NC(=O)[C@H](Cc1ccc(O)cc1)NC(=O)[C@H](C)NC(=O)[C@H](CCCNC(=N)N)NC(=O)c1ccc(CN)cc1)[C@@H](C)CC)C(=O)N[C@H](C(=O)N[C@@H](CCCNC(=N)N)C(=O)N[C@@H](CCC(N)=O)C(=O)N[C@@H](CCCNC(=N)N)C(=O)N[C@@H](Cc1ccc(O)cc1)C(N)=O)[C@@H](C)O
notes: also called compound No. 42
B3: 4-Aminomethylbenzoyl-[Ala26, Phe(4NH2)27, Ile28,31]-PYY(25-36) (peptide)
peptide: [4Amb]RA[Phe(4-NH2)]INLITRQRY-NH2
modifications: N-terminus assumed
SMILES: CC[C@H](C)[C@H](NC(=O)[C@H](Cc1ccc(N)cc1)NC(=O)[C@H](C)NC(=O)[C@H](CCCNC(=N)N)NC(=O)c1ccc(CN)cc1)C(=O)N[C@@H](CC(N)=O)C(=O)N[C@@H](CC(C)C)C(=O)N[C@H](C(=O)N[C@H](C(=O)N[C@@H](CCCNC(=N)N)C(=O)N[C@@H](CCC(N)=O)C(=O)N[C@@H](CCCNC(=N)N)C(=O)N[C@@H](Cc1ccc(O)cc1)C(N)=O)[C@@H](C)O)[C@@H](C)CC
notes: also called compound No. 52
B4: 4-Aminomethylbenzoyl-[Ala26, Pya(4)27, Ile28,31]-PYY(25-36) (peptide)
peptide: [4Amb]RA[4Pal]INLITRQRY-NH2
modifications: N-terminus assumed
SMILES: CC[C@H](C)[C@H](NC(=O)[C@H](Cc1ccncc1)NC(=O)[C@H](C)NC(=O)[C@H](CCCNC(=N)N)NC(=O)c1ccc(CN)cc1)C(=O)N[C@@H](CC(N)=O)C(=O)N[C@@H](CC(C)C)C(=O)N[C@H](C(=O)N[C@H](C(=O)N[C@@H](CCCNC(=N)N)C(=O)N[C@@H](CCC(N)=O)C(=O)N[C@@H](CCCNC(=N)N)C(=O)N[C@@H](Cc1ccc(O)cc1)C(N)=O)[C@@H](C)O)[C@@H](C)CC
notes: also called compound No. 44
B5: 4-Aminomethylbenzoyl-[Lys25, Ala26, Ile28,31]-PYY(25-36) (peptide)
peptide: [4Amb]KAYINLITRQRY-NH2
modifications: N-terminus assumed
SMILES: CC[C@H](C)[C@H](NC(=O)[C@H](Cc1ccc(O)cc1)NC(=O)[C@H](C)NC(=O)[C@H](CCCCN)NC(=O)c1ccc(CN)cc1)C(=O)N[C@@H](CC(N)=O)C(=O)N[C@@H](CC(C)C)C(=O)N[C@H](C(=O)N[C@H](C(=O)N[C@@H](CCCNC(=N)N)C(=O)N[C@@H](CCC(N)=O)C(=O)N[C@@H](CCCNC(=N)N)C(=O)N[C@@H](Cc1ccc(O)cc1)C(N)=O)[C@@H](C)O)[C@@H](C)CC
notes: also called compound No. 49
B6: 4-Aminomethylbenzoyl-[Ala26, Ile28,31, Nal(1)30]-PYY(25-36) (peptide)
peptide: [4Amb]RAYIN[1Nal]ITRQRY-NH2
modifications: N-terminus assumed
SMILES: CC[C@H](C)[C@H](NC(=O)[C@H](Cc1ccc(O)cc1)NC(=O)[C@H](C)NC(=O)[C@H](CCCNC(=N)N)NC(=O)c1ccc(CN)cc1)C(=O)N[C@@H](CC(N)=O)C(=O)N[C@@H](Cc1cccc2ccccc12)C(=O)N[C@H](C(=O)N[C@H](C(=O)N[C@@H](CCCNC(=N)N)C(=O)N[C@@H](CCC(N)=O)C(=O)N[C@@H](CCCNC(=N)N)C(=O)N[C@@H](Cc1ccc(O)cc1)C(N)=O)[C@@H](C)O)[C@@H](C)CC
notes: also called compound No. 55
B7: [D-Ala22, Ala26, Ile28,31, Arg(Me)35]-PYY(22-36) (peptide)
peptide: [dA]SLRAYINLITRQ[Arg(Me)]Y-NH2
modifications: N-terminus assumed
SMILES: CC[C@H](C)[C@H](NC(=O)[C@H](Cc1ccc(O)cc1)NC(=O)[C@H](C)NC(=O)[C@H](CCCNC(=N)N)NC(=O)[C@H](CC(C)C)NC(=O)[C@H](CO)NC(=O)[C@@H](C)N)C(=O)N[C@@H](CC(N)=O)C(=O)N[C@@H](CC(C)C)C(=O)N[C@H](C(=O)N[C@H](C(=O)N[C@@H](CCCNC(=N)N)C(=O)N[C@@H](CCC(N)=O)C(=O)N[C@@H](CCCNC(=N)NC)C(=O)N[C@@H](Cc1ccc(O)cc1)C(N)=O)[C@@H](C)O)[C@@H](C)CC
notes: also called compound No. 3
B8: 4-Aminomethylbenzoyl-[Ala(cPr)26, Ile28,32]-PYY(25-36) (peptide)
peptide: [4Amb]R[Ala(cPr)]YINLITRQRY-NH2
modifications: N-terminus assumed
SMILES: CC[C@H](C)[C@H](NC(=O)[C@H](Cc1ccc(O)cc1)NC(=O)[C@H](CC1CC1)NC(=O)[C@H](CCCNC(=N)N)NC(=O)c1ccc(CN)cc1)C(=O)N[C@@H](CC(N)=O)C(=O)N[C@@H](CC(C)C)C(=O)N[C@H](C(=O)N[C@H](C(=O)N[C@@H](CCCNC(=N)N)C(=O)N[C@@H](CCC(N)=O)C(=O)N[C@@H](CCCNC(=N)N)C(=O)N[C@@H](Cc1ccc(O)cc1)C(N)=O)[C@@H](C)O)[C@@H](C)CC
notes: name prints Ile28,32; also called compound No. 48
B9: 4-Aminomethylbenzoyl-[Ala26, Ile28, Cha31]-PYY(25-36) (peptide)
peptide: [4Amb]RAYINL[Cha]TRQRY-NH2
modifications: N-terminus assumed
SMILES: CC[C@H](C)[C@H](NC(=O)[C@H](Cc1ccc(O)cc1)NC(=O)[C@H](C)NC(=O)[C@H](CCCNC(=N)N)NC(=O)c1ccc(CN)cc1)C(=O)N[C@@H](CC(N)=O)C(=O)N[C@@H](CC(C)C)C(=O)N[C@@H](CC1CCCCC1)C(=O)N[C@H](C(=O)N[C@@H](CCCNC(=N)N)C(=O)N[C@@H](CCC(N)=O)C(=O)N[C@@H](CCCNC(=N)N)C(=O)N[C@@H](Cc1ccc(O)cc1)C(N)=O)[C@@H](C)O
notes: also called compound No. 41
B10: 4-Aminomethylbenzoyl-[Ala26, Ile28,31, Aib30]-PYY(25-36) (peptide)
peptide: [4Amb]RAYIN[Aib]ITRQRY-NH2
modifications: N-terminus assumed
SMILES: CC[C@H](C)[C@H](NC(=O)[C@H](Cc1ccc(O)cc1)NC(=O)[C@H](C)NC(=O)[C@H](CCCNC(=N)N)NC(=O)c1ccc(CN)cc1)C(=O)N[C@@H](CC(N)=O)C(=O)NC(C)(C)C(=O)N[C@H](C(=O)N[C@H](C(=O)N[C@@H](CCCNC(=N)N)C(=O)N[C@@H](CCC(N)=O)C(=O)N[C@@H](CCCNC(=N)N)C(=O)N[C@@H](Cc1ccc(O)cc1)C(N)=O)[C@@H](C)O)[C@@H](C)CC
notes: also called compound No. 47
B11: 4-Aminomethylbenzoyl-[Ala26, Aib27, Ile28,31]-PYY(25-36) (peptide)
peptide: [4Amb]RA[Aib]INLITRQRY-NH2
modifications: N-terminus assumed
SMILES: CC[C@H](C)[C@H](NC(=O)[C@H](CC(C)C)NC(=O)[C@H](CC(N)=O)NC(=O)[C@@H](NC(=O)C(C)(C)NC(=O)[C@H](C)NC(=O)[C@H](CCCNC(=N)N)NC(=O)c1ccc(CN)cc1)[C@@H](C)CC)C(=O)N[C@H](C(=O)N[C@@H](CCCNC(=N)N)C(=O)N[C@@H](CCC(N)=O)C(=O)N[C@@H](CCCNC(=N)N)C(=O)N[C@@H](Cc1ccc(O)cc1)C(N)=O)[C@@H](C)O
notes: also called compound No. 53
B12: 4-Aminomethylbenzoyl-[Ala26, Ile28,31, Aib29]-PYY(25-36) (peptide)
peptide: [4Amb]RAYI[Aib]LITRQRY-NH2
modifications: N-terminus assumed
SMILES: CC[C@H](C)[C@H](NC(=O)[C@H](CC(C)C)NC(=O)C(C)(C)NC(=O)[C@@H](NC(=O)[C@H](Cc1ccc(O)cc1)NC(=O)[C@H](C)NC(=O)[C@H](CCCNC(=N)N)NC(=O)c1ccc(CN)cc1)[C@@H](C)CC)C(=O)N[C@H](C(=O)N[C@@H](CCCNC(=N)N)C(=O)N[C@@H](CCC(N)=O)C(=O)N[C@@H](CCCNC(=N)N)C(=O)N[C@@H](Cc1ccc(O)cc1)C(N)=O)[C@@H](C)O
notes: also called compound No. 46
B13: 4-Aminomethylbenzoyl-[Ala26, Nle27, Ile28,31]-PYY(25-36) (peptide)
peptide: [4Amb]RA[Nle]INLITRQRY-NH2
modifications: N-terminus assumed
SMILES: CCCC[C@H](NC(=O)[C@H](C)NC(=O)[C@H](CCCNC(=N)N)NC(=O)c1ccc(CN)cc1)C(=O)N[C@H](C(=O)N[C@@H](CC(N)=O)C(=O)N[C@@H](CC(C)C)C(=O)N[C@H](C(=O)N[C@H](C(=O)N[C@@H](CCCNC(=N)N)C(=O)N[C@@H](CCC(N)=O)C(=O)N[C@@H](CCCNC(=N)N)C(=O)N[C@@H](Cc1ccc(O)cc1)C(N)=O)[C@@H](C)O)[C@@H](C)CC)[C@@H](C)CC
notes: also called compound No. 43

target: T1, human Y2 receptor; test: RBA: [125I]-PYY displacement, hY2R/CHO membranes
In short: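 Bound radioligand was collected by filtration on PEI-treated GF/C filters, washed with Tris/MgCl₂/NaCl/CHAPS buffer pH 7.4, and counted by scintillation; IC₅₀ values were calculated.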

| IC50 Ratio (vs PYY(3-36)) | Binder |
| --- | --- |
| 71 ratio | B1 |
| 10 ratio | B2 |
| 11 ratio | B3 |
| 3.8 ratio | B4 |
| 34 ratio | B5 |
| 3.4 ratio | B6 |
| 6 ratio | B7 |
| 8.1 ratio | B8 |
| 15 ratio | B9 |
| 49 ratio | B10 |
| 18 ratio | B11 |
| 87 ratio | B12 |
| 4.6 ratio | B13 |

target: T1, human Y2 receptor; test: cell-based or functional assay

| GBA EC50 Ratio (vs PYY(3-36)), [35S]GTPγS | Binder |
| --- | --- |
| 27 ratio | B1 |
| 5.7 ratio | B2 |
| 5.7 ratio | B3 |
| 2.6 ratio | B4 |
| 24 ratio | B5 |
| 3 ratio | B6 |
| 2.7 ratio | B7 |
| 4.1 ratio | B8 |
| 8.7 ratio | B9 |
| 23 ratio | B10 |
| 7.5 ratio | B11 |
| 34 ratio | B12 |
| 2.3 ratio | B13 |
